± gives the uncertainty stated by the source.
Assay: self-splicing fitness, log relative to wild type (ln ratio); higher = more splicing; Tetrahymena group I intron in knt gene, E. coli kanamycin selection, DiMSum; sequences stand for … in CUCUCU…GGAGGGAAAAGUUAUCAGGCAUGCACCUGGUAGCUAGUCUUUAAACCAAUAGAUUGCAUCGGUUUAAAAGGCAAGACCGUCAAAUUGCGGGAAAGGGGUCAACAGCCGUUCAGUACCAAGUCUCAGGGGAAACUUUGAGAUGGCCUUGCAAAGGGUAUGGUAAUAAGCUGACGGACAUGGUCCUAACCACGCAGCCAAGUCCUAAGUCAACAGAUCUUCUGUUGAUAUGGAUGCAGUUCACAGACUAAAUGUCGGUCGGGGAAGAUGUAUUCUUCUCAUAAGAUAUAGUCGGACCUCUCCUUAAUGGGAGCUAGCGGAUGAAGUGAUGCAACACUGGAGCCGCUGGGAACUAAUUUGUAUGCGAAAGUAUAUUGAUUAGUUUUGGAGUACUCGUGGUCG
How it was run: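 Pooled colonies went to amplicon sequencing on an Illumina HiSeq 2500 after six replicate transformations. The plates were LB agar with 100 μg/mL carbenicillin, 50 μM IPTG and 0.2% rhamnose, with or without 25 μg/mL kanamycin, incubated overnight at 37°C or 30°C. The E. coli BL21(DE3) library had all eight P1ex-region intron nucleotides randomised, the intron placed in the knt kanamycin-resistance gene on pET-22b(+). DiMSum fitness is the error-weighted combination of replicate fold changes, kanamycin against none, normalised to wild type.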

Row | Sequence | self-splicing fitness (ln) (30 °C) | self-splicing fitness (ln) (37 °C)
1 | UUGAAGCAAUAUUACGUGAU | -2.29 ± 0.11 | -1.3 ± 0.16
2 | UUCCAGCAAUAUUACGUUCC |  | -1.84 ± 0.42
3 | CGCAAGCAAUAUUACGUCGA | -2.24 ± 0.16 | -1.67 ± 0.14
4 | AUCUAGCAAUAUUACGAUAA | -2.1 ± 0.22 | -1.1 ± 0.3
5 | ACAAAGCAAUAUUACGGCAA | -0.0281 ± 0.08 | -0.252 ± 0.1
6 | GGGCAGCAAUAUUACGUUGU | -2.7 ± 0.16 | -2.77 ± 0.19
7 | UCGCAGCAAUAUUACGUGCC | -2.66 ± 0.21 | -2.7 ± 0.36
8 | GCGUAGCAAUAUUACGGCGA | -0.0106 ± 0.13 | 0.378 ± 0.16
9 | GUUUAGCAAUAUUACGGCAU | 0.0778 ± 0.14 | -0.182 ± 0.14
10 | CACAAGCAAUAUUACGACGU | -2.15 ± 0.086 | -0.614 ± 0.077
11 | AGAUAGCAAUAUUACGACUA | -1.03 ± 0.14 | -0.165 ± 0.13
12 | UCAGAGCAAUAUUACGAUCU | -3.62 ± 0.21 | -2.88 ± 0.28
13 | GAACAGCAAUAUUACGUGGG | -3.42 ± 0.11 | -1.9 ± 0.091
14 | UUAUAGCAAUAUUACGACGG | -0.906 ± 0.11 | -0.144 ± 0.16
15 | GGUGAGCAAUAUUACGGAGU | -3.25 ± 0.26 | -1.9 ± 0.19
16 | CGGGAGCAAUAUUACGGUUG | -1.89 ± 0.44 | 
17 | AGCUAGCAAUAUUACGAUAU | -0.87 ± 0.17 | 0.27 ± 0.11
18 | GAUAAGCAAUAUUACGGGGU | -3.97 ± 0.25 | -1.74 ± 0.16
19 | AUCCAGCAAUAUUACGUUUU | -2.04 ± 0.083 | -1.15 ± 0.11
20 | AACUAGCAAUAUUACGAGAC | -1.96 ± 0.44 | 
21 | UCUUAGCAAUAUUACGCGUG | -3.05 ± 0.18 | -2.21 ± 0.15
22 | GCAAAGCAAUAUUACGGCCG | -0.0405 ± 0.18 | -1.41 ± 0.33
23 | CCAUAGCAAUAUUACGCUUA | -2.56 ± 0.26 | -3.5 ± 0.33
24 | GUAAAGCAAUAUUACGUGUC | -1.85 ± 0.06 | -1.14 ± 0.079
25 | UUUUAGCAAUAUUACGACGU | -2.06 ± 0.25 | -1.24 ± 0.22

Row | Sequence | self-splicing fitness (ln) (30 °C) | self-splicing fitness (ln) (37 °C)
26 | CCGGAGCAAUAUUACGAGGA |  | -1.96 ± 0.24
27 | ACCCAGCAAUAUUACGUUCC | -2.32 ± 0.11 | -1.02 ± 0.14
28 | GCUAAGCAAUAUUACGGCAC | -1.31 ± 0.19 | -0.55 ± 0.2
29 | ACUCAGCAAUAUUACGUUAA | -2.35 ± 0.13 | -1.41 ± 0.12
30 | AUAGAGCAAUAUUACGCAAA | -2.79 ± 0.2 | -1.03 ± 0.18
31 | CCAUAGCAAUAUUACGCAGG | -3.98 ± 0.28 | -3.18 ± 0.35
32 | GACGAGCAAUAUUACGCCCA | -2.06 ± 0.3 | -2.17 ± 0.28
33 | AUUCAGCAAUAUUACGACAA | -0.461 ± 0.15 | -0.889 ± 0.19
34 | UGCUAGCAAUAUUACGCCCU | -0.725 ± 0.27 | -0.338 ± 0.27
35 | GCACAGCAAUAUUACGGUCU | -0.685 ± 0.042 | 0.63 ± 0.06
36 | AGCGAGCAAUAUUACGGCAA | -1.93 ± 0.13 | -1.71 ± 0.15
37 | GAGGAGCAAUAUUACGGUCG | -1.43 ± 0.14 | -2.19 ± 0.29
38 | CGGCAGCAAUAUUACGUCAU | -2.83 ± 0.12 | -1.09 ± 0.092
39 | GCUGAGCAAUAUUACGACAC | -1.67 ± 0.14 | -1.1 ± 0.18
40 | AGCCAGCAAUAUUACGCUUA | -2.09 ± 0.11 | -1.4 ± 0.093
41 | CCCGAGCAAUAUUACGAGAA | -3.69 ± 0.43 | -2.1 ± 0.34
42 | AAGUAGCAAUAUUACGCCAG | -2.64 ± 0.21 | -0.996 ± 0.24
43 | GGCCAGCAAUAUUACGGUGC | -2.91 ± 0.12 | -2.01 ± 0.11
44 | AUCAAGCAAUAUUACGGCCC | -0.747 ± 0.31 | 
45 | UAGCAGCAAUAUUACGACUG | -0.817 ± 0.14 | -0.556 ± 0.18
46 | CGCGAGCAAUAUUACGUGUC | -3.46 ± 0.19 | -2.6 ± 0.2
47 | UUCGAGCAAUAUUACGCUCA | -2.23 ± 0.25 | -1.9 ± 0.29
48 | UUCUAGCAAUAUUACGAGUC |  | -1.86 ± 0.39
49 | CCCAAGCAAUAUUACGUGAG | -2.48 ± 0.09 | -0.85 ± 0.08
50 | UUCAAGCAAUAUUACGACAC | -2.8 ± 0.28 | -1.39 ± 0.18

Row | Sequence | self-splicing fitness (ln) (30 °C) | self-splicing fitness (ln) (37 °C)
51 | CGUUAGCAAUAUUACGGGGU | -3.72 ± 0.24 | -2.03 ± 0.35
52 | ACUAAGCAAUAUUACGCUAC | -3.94 ± 0.23 | -1.08 ± 0.18
53 | CGCCAGCAAUAUUACGAGGG | -3.28 ± 0.17 | -1.83 ± 0.18
54 | GCUUAGCAAUAUUACGCGAU | -3.45 ± 0.34 | -1.69 ± 0.29
55 | CCAGAGCAAUAUUACGUCUC | -3.23 ± 0.15 | -2.78 ± 0.23
56 | UCACAGCAAUAUUACGCGGU | -4.02 ± 0.13 | -2.63 ± 0.13
57 | ACGAAGCAAUAUUACGGAUU | -1.86 ± 0.087 | -1.67 ± 0.11
58 | CACGAGCAAUAUUACGCAGC |  | -1.29 ± 0.35
59 | AUGGAGCAAUAUUACGUCUA | -1.38 ± 0.23 | -0.778 ± 0.19
60 | GCUCAGCAAUAUUACGCGUG | -1.99 ± 0.07 | -1.79 ± 0.089
61 | ACUGAGCAAUAUUACGCGAG | -2.27 ± 0.1 | -1.11 ± 0.096
62 | GGAUAGCAAUAUUACGAUAG | -2.63 ± 0.23 | -2.86 ± 0.47
63 | CACUAGCAAUAUUACGUCGA | -1.58 ± 0.13 | -1.48 ± 0.1
64 | GUCGAGCAAUAUUACGGUAA | -1.74 ± 0.19 | -2.18 ± 0.19
65 | CCUUAGCAAUAUUACGGUCG | -0.919 ± 0.092 | -0.755 ± 0.097
66 | CAUUAGCAAUAUUACGGUAC | -1.9 ± 0.16 | -2.07 ± 0.46
67 | CGUCAGCAAUAUUACGGUAC | -3.64 ± 0.31 | -1.89 ± 0.27
68 | GUCCAGCAAUAUUACGCAUA | -0.663 ± 0.091 | -0.0806 ± 0.094
69 | GAGCAGCAAUAUUACGGCCG | -1.05 ± 0.17 | -0.59 ± 0.27
70 | AUUGAGCAAUAUUACGAUAA |  | -2.14 ± 0.4
71 | AGAUAGCAAUAUUACGCAGA | -2.95 ± 0.18 | -2.32 ± 0.2
72 | AAUAAGCAAUAUUACGGGGA | -3.01 ± 0.21 | -1.42 ± 0.16
73 | UUCGAGCAAUAUUACGAGCA | -1.41 ± 0.16 | -0.946 ± 0.15
74 | AACUAGCAAUAUUACGGCCC | -1.6 ± 0.17 | -0.325 ± 0.24
75 | UGUGAGCAAUAUUACGUCUG | -0.95 ± 0.15 | -0.000357 ± 0.17

Row | Sequence | self-splicing fitness (ln) (30 °C) | self-splicing fitness (ln) (37 °C)
76 | CCGCAGCAAUAUUACGGCAA | -2.74 ± 0.24 | -2.53 ± 0.22
77 | GAGGAGCAAUAUUACGUGUA |  | -3.62 ± 0.35
78 | GGGCAGCAAUAUUACGCAUA | -1 ± 0.092 | 0.38 ± 0.13
79 | ACGAAGCAAUAUUACGCAUG | -1.79 ± 0.062 | -0.62 ± 0.083
80 | GCCUAGCAAUAUUACGCAUC | -0.219 ± 0.066 | 0.571 ± 0.091
81 | UCCGAGCAAUAUUACGAUAA | -2 ± 0.22 | -2.41 ± 0.32
82 | CACUAGCAAUAUUACGUAUU | -3.28 ± 0.17 | -2.11 ± 0.15
83 | AUAUAGCAAUAUUACGAACC | -1 ± 0.27 | 0.205 ± 0.24
84 | AGGUAGCAAUAUUACGGAAC | -3.629 ± 0.035 | -2.2 ± 0.042
85 | CUCGAGCAAUAUUACGACAG | -1.76 ± 0.15 | -1.42 ± 0.21
86 | GGUAAGCAAUAUUACGUCCA | -0.363 ± 0.14 | -0.817 ± 0.16
87 | GGCAAGCAAUAUUACGCCUG |  | -0.621 ± 0.47
88 | CAUCAGCAAUAUUACGCCAU | -3.98 ± 0.35 | -2.97 ± 0.24
89 | GUUUAGCAAUAUUACGAAUC |  | -0.202 ± 0.45
90 | CAAUAGCAAUAUUACGGCGU | -2.07 ± 0.11 | -0.986 ± 0.12
91 | GGUGAGCAAUAUUACGUCUU | -0.609 ± 0.2 | 0.239 ± 0.25
92 | CCAAAGCAAUAUUACGGGCU | -2.45 ± 0.13 | -3.3 ± 0.23
93 | UUAUAGCAAUAUUACGUACA | -1.06 ± 0.16 | -0.0284 ± 0.16
94 | GUCGAGCAAUAUUACGACGU | -0.827 ± 0.19 | -0.341 ± 0.16
95 | GACCAGCAAUAUUACGGUGU | -0.661 ± 0.055 | -0.365 ± 0.084
96 | UGCCAGCAAUAUUACGUAUU | -2.8 ± 0.13 | -2.56 ± 0.16
97 | GAAAAGCAAUAUUACGCUGU | -2.75 ± 0.15 | -0.534 ± 0.12
98 | CCCCAGCAAUAUUACGGCUC | -3.43 ± 0.18 | -2.75 ± 0.33

From the supplement of paper PMC7877785
